In the assay the target is CD3 on T cells (Jurkat T cells; primary human T cells) (human, UniProt P07766 23-207; P04234 22-171; P09693 23-182). As to the kind of experiment: flow cytometry on Jurkat T cells, APC-conjugated anti-His tag secondary antibody.
CD3 on T cells (Jurkat T cells; primary human T cells), sequence (P07766 23-207 limits assumed, chain 1 of 3): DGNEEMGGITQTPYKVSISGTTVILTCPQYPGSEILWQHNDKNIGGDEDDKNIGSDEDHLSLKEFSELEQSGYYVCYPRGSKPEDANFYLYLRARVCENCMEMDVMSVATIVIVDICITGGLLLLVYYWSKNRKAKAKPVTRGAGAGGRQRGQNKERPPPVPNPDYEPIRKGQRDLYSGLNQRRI
CD3 on T cells (Jurkat T cells; primary human T cells), sequence (P04234 22-171 limits assumed, chain 2 of 3): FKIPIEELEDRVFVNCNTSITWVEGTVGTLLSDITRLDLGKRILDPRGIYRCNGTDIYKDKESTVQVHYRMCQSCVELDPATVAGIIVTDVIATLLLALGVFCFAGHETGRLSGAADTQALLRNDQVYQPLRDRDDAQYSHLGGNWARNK
CD3 on T cells (Jurkat T cells; primary human T cells), sequence (P09693 23-182 limits assumed, chain 3 of 3): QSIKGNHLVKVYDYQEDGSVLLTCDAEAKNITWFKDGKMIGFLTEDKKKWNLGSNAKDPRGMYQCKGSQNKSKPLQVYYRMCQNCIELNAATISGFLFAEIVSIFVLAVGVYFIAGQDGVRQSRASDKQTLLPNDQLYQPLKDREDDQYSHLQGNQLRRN

Description: Each multi-specific reagent was then screened for binding to Jurkat T cells. Jurkat T cells were plated into individual wells of a 96-well plate (˜100,000 cells per well in 200 ul ImmunoCult™-XF T Cell Expansion Medium (StemCell Technologies)). […] As a control, CHO cell culture medium alone was added. Following incubation for two hours, cells were washed and stained in 50 μl FACS buffer (PBS (Gibco)/2% FBS (LabTech)) containing a 1/100 dilution of an APC-conjugated anti-His tag secondary antibody (BioLegend). Cells were washed again and resuspended in 100 μl FACS buffer plus 0.1 μg/ml DAPI live/dead staining dye (Roche). Cell samples were run on a MACSQuant® Analyzer 10 Flow Cytometer and analyzed using the FlowJo (v10) software.

B1: CM04P (anti-PEG _ anti-EpCAM) (bispecific antibody)
chain: QIQLVQSGPELKKPGETVKISCKASGYTFKNYGMNWVKQAPGKGLKWMGWINTYTGQPIYANDFKGRFAFSLETSASTAYLQINNLKNEDTATYFCARDWGPYWGQGTLVIVSASPNSASHSGSAPQTSSAPGSQNIMMTQSPSSLAVSAGEKVTVNCKSSQSVLYSSNQMNYLAWYQQKPGQSPKLLIYWASTRESGVPDRFTGSGSGTDFTLTISSVQTEDLAVYYCLQYLSSWTFGGGTKLEIKGGSSRSSSSGGGGSGGGGQVKLQQSGPELKKPGETVKISCKASGYTFTNYGMNWVKQAPGKGLKWMGWINTYTGESTYADDFKGRFAFSLETSASAAYLQINNLKNEDTATYFCARFAIKGDYWGQGTTVTVSSSPNSASHSGSAPQTSSAPGSQDIVLTQSPFSNPVTLGTSASISCRSTKSLLHSNGITYLYWYLQKPGQSPQLLIYQMSNLASGVPDRFSSSGSGTDFTLRISRVEAEDVGVYYCAQNLEIPRTFGGGTKLEIKGGGGSHHHHHHHH
notes: Intended as a negative control; also called αPEG/αEPCAM
For the molecule B1, the binding result is on record as “no binding (tested: 20 µl of CHO culture supernatant)”.

These data come from patent publication US20250353931A1 (CHIMERIS UK, published 2025).
